Experimental data from patent US20110064668A1.

Experiments:
[1] = molecular target: α3β4 subtype of rat neuronal nAChR (rat), P04757; experiment: cell-based or functional assay
Kv1.6 channel = experiment: cell-based or functional assay

α3β4 subtype of rat neuronal nAChR (rat), P04757, sequence (P04757 26-499, chain 1 of 2): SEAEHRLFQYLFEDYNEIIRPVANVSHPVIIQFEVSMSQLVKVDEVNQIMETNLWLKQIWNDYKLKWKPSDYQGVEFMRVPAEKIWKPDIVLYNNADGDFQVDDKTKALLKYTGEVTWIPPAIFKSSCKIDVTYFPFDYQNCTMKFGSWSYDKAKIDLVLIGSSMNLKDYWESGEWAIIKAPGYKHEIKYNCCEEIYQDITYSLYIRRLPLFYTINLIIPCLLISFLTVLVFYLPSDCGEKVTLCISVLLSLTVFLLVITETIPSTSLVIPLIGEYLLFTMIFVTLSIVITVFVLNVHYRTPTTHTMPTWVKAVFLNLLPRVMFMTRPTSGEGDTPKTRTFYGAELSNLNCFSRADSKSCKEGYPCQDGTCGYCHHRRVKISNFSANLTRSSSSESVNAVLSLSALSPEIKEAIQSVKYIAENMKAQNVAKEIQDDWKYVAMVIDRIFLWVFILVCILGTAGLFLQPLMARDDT
α3β4 subtype of rat neuronal nAChR (rat), P04757, sequence (P12392 21-495, chain 2 of 2, further chain): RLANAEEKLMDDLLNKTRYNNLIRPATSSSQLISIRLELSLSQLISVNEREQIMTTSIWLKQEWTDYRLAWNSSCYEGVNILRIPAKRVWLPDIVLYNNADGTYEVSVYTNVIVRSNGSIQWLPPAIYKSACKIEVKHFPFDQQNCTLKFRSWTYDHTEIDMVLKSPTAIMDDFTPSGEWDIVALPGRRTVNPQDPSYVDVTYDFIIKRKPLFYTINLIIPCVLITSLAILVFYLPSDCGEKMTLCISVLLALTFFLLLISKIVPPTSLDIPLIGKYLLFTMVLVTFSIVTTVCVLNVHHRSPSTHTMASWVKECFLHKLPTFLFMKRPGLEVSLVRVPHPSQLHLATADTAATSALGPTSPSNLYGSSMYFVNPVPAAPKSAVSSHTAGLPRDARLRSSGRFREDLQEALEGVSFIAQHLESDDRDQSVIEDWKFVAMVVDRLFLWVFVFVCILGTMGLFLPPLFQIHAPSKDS

Binder: FPRPRICNLACRAGIGHKYPFCHCR (modifications not checked) [conotoxin pl14a]
- IC50 in α3β4 (nM), block of ACh-elicited current in oocytes [1]: 8700 nM
- IC50, µM (vitelline membrane retained) (Kv1.6 channel): 3.12 µM
- IC50 for the block of Kv1.6 currents (vitelline membrane removed) (Kv1.6 channel): 1.59 µM
